Data taken from patent EP1878438A2.

Tests used:
[1] = target: T1, GnRH receptor of rat pituitary membranes (rat) (UniProt P30969); assay: radioligand displacement on rat pituitary membranes, equimolar concentrations
T1 sequence (looked up): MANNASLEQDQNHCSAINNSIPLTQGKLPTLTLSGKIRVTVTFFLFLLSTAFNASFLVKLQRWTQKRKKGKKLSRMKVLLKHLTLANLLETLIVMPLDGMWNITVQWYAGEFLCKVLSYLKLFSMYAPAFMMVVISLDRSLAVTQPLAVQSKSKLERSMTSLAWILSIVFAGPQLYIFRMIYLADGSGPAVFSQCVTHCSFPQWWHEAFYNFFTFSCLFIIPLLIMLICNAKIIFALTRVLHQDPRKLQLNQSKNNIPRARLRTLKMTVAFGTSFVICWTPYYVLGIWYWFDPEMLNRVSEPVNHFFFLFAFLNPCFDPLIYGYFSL

[2] = target: LH receptors on bovine granulosa cells and bovine small luteal cells (bovine) (UniProt Q28005); assay: cell-based or functional assay
Sequence of UniProt Q28005 (Q28005 27-701): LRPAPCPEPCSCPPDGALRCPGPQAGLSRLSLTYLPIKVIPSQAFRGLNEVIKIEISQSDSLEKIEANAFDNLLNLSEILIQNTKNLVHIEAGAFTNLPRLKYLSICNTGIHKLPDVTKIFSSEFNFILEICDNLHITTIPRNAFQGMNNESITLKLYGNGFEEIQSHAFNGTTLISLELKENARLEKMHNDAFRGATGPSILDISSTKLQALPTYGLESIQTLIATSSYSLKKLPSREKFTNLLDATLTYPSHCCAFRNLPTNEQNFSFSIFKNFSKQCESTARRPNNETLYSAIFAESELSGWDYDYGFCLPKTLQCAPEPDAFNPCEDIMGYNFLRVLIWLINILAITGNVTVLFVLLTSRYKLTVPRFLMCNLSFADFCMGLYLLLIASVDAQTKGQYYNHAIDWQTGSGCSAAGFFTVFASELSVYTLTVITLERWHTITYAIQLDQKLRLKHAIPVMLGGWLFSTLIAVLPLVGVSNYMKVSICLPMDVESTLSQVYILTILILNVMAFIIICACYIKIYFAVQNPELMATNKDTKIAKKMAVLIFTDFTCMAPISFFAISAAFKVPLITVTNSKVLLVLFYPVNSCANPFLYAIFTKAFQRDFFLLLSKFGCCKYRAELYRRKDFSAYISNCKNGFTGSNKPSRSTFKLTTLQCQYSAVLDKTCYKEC

| cpm displaced relative to native GnRH [1] | Substance | cell killing of bovine small luteal cells after 22 hr (Trypan Blue exclusion) (fold vs hecate alone) [2] |
| --- | --- | --- |
| 187% | D-Lys6GnRH (peptide) |  |
|  | hecate-bLH conjugate (peptide) | 2 |
